Assay results reported in US20140194361A1 (published 2014).
No end group written: not given here.

Biological target: α5β1 integrin receptor on primary mesangial cells
Experiment: cell-based or functional assay

inhibition of MC adhesion to fibronectin-coated plates, enhanced potency of D- vs. E-control peptide compared to GRGDSP, at 200 µg/ml: 2.4 fold
inhibition of MC adhesion to fibronectin-coated plates, enhanced potency of D- vs. E-control peptide compared to GRGDSP, at 400 µg/ml: 2.8 fold
inhibition of mesangial cell binding to FN-coated plates, potency against GRGDSP: ~3 fold more potent than GRGDSP
Binder: CGRGDSP (also: cyclic GRGDSP part, ring closure not given here) [modified CGRGDSP peptide (D-peptide)]
